Measured values taken from article PMC9606368, “Membrane mediated phase separation of the bacterial nucleoid occlusion protein Noc” (Scientific Reports, 2022).
Values belong to the binder of their own block, whether it stands above or below them.

Assays:
[1] = biological target: T1, nucleoid occlusion protein Noc (wild type) (Bacillus subtilis (strain 168), UniProt P37524); assay: QCM-D on SLB; FtsZ GTPase assay; non-phase-separated Noc; FtsZ is up-concentrated only in Noc condensates
T1 chain: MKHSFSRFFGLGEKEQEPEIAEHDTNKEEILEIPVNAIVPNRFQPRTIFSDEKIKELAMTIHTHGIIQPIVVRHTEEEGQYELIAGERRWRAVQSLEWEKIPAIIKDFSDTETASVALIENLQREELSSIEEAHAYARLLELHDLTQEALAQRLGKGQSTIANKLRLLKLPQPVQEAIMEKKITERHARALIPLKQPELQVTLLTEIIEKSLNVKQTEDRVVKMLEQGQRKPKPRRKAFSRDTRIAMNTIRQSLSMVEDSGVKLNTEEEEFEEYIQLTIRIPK

[2] = biological target: T1, nucleoid occlusion protein Noc (wild …); assay: MST; non-phase-separated Noc; labelled FtsZ strongly partitions into Noc condensates once Noc phase separates
[3] = biological target: T2, nucleoid occlusion protein Noc (wild type) (B. subtilis, UniProt P37524 1-283); assay: recruitment to GUV membranes (confocal microscopy); 3 µM unlabelled WT Noc added to Atto488-Noc R89A and GUVs (70:30 POPC:POPG); the mutant alone at 4 µM with 1 mM CTP and 1.5 µM dsNBS does not bind the GUV; conditions: both partners purified
T2 construct: Nucleoid occlusion protein Noc, a ParB-like protein of B. subtilis; In the microscopy with FtsZ the legends say only 'Noc'; part of it may have been the KCK-tagged, Atto488-labelled form; also called WT Noc; wildtype Noc; source: E. coli Rosetta (DE3), purified (HisTrap, Heparin HP, Superdex-75)
T2 sequence (looked up): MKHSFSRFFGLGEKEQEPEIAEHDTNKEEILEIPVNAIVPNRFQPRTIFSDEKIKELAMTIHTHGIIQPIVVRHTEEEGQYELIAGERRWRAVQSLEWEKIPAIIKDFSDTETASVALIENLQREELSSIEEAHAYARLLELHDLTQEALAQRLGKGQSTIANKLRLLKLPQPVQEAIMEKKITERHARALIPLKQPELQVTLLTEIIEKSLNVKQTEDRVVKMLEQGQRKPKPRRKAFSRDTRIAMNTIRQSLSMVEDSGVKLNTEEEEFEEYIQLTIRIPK

binding result [1]: no binding
B1: B. subtilis FtsZ (protein)
chain: MLEFETNIDGLASIKVIGVGGGGNNAVNRMIENEVQGVEYIAVNTDAQALNLSKAEVKMQIGAKLTRGLGAGANPEVGKKAAEESKEQIEEALKGADMVFVTAGMGGGTGTGAAPVIAQIAKDLGALTVGVVTRPFTFEGRKRQLQAAGGISAMKEAVDTLIVIPNDRILEIVDKNTPMLEAFREADNVLRQGVQGISDLIATPGLINLDFADVKTIMSNKGSALMGIGIATGENRAAEAAKKAISSPLLEAAIDGAQGVLMNITGGTNLSLYEVQEAADIVASASDQDVNMIFGSVINENLKDEIVVTVIATGFIEQEKDVTKPQRPSLNQSIKTHNQSVPKREPKREEPQQQNTVSRHTSQPADDTLDIPTFLRNRNKRG

binding result [2]: no binding
B2: B. subtilis FtsZ labelled with Alexa-Fluor 647 NHS ester (protein)
chain: MLEFETNIDGLASIKVIGVGGGGNNAVNRMIENEVQGVEYIAVNTDAQALNLSKAEVKMQIGAKLTRGLGAGANPEVGKKAAEESKEQIEEALKGADMVFVTAGMGGGTGTGAAPVIAQIAKDLGALTVGVVTRPFTFEGRKRQLQAAGGISAMKEAVDTLIVIPNDRILEIVDKNTPMLEAFREADNVLRQGVQGISDLIATPGLINLDFADVKTIMSNKGSALMGIGIATGENRAAEAAKKAISSPLLEAAIDGAQGVLMNITGGTNLSLYEVQEAADIVASASDQDVNMIFGSVINENLKDEIVVTVIATGFIEQEKDVTKPQRPSLNQSIKTHNQSVPKREPKREEPQQQNTVSRHTSQPADDTLDIPTFLRNRNKRG
modifications: Alexa-Fluor 647 NHS ester

binding result [3]: binds
B3: Atto488-Noc R89A (non-CTP-binding mutant, KCK-tagged, labelled) (natural protein, B. subtilis, UniProt P37524 1-283, looked up)
chain: MKHSFSRFFGLGEKEQEPEIAEHDTNKEEILEIPVNAIVPNRFQPRTIFSDEKIKELAMTIHTHGIIQPIVVRHTEEEGQYELIAGERAWRAVQSLEWEKIPAIIKDFSDTETASVALIENLQREELSSIEEAHAYARLLELHDLTQEALAQRLGKGQSTIANKLRLLKLPQPVQEAIMEKKITERHARALIPLKQPELQVTLLTEIIEKSLNVKQTEDRVVKMLEQGQRKPKPRRKAFSRDTRIAMNTIRQSLSMVEDSGVKLNTEEEEFEEYIQLTIRIPK
modifications: Atto488 maleimide on cysteine (KCK tag)
notes: Nucleoid occlusion protein Noc of B. subtilis with R89A; Labelling efficiency of ~20% is told for KCK-tagged Noc
